B1: Cell division protein FtsA (Escherichia coli (strain K12)), P0ABH0 (parent)
chain: MIKATDRKLVVGLEIGTAKVAALVGEVLPDGMVNIIGVGSCPSRGMDKGGVNDLESVVKCVQRAIDQAELMADCQISSVYLALSGKHISCQNEIGMVPISEEEVTQEDVENVVHTAKSVRVRDEHRVLHVIPQEYAIDYQEGIKNPVGLSGVRMQAKVHLITCHNDMAKNIVKAVERCGLKVDQLIFAGLASSYSVLTEDERELGVCVVDIGGGTMDIAVYTGGALRHTKVIPYAGNVVTSDIAYAFGTPPSDAEAIKVRHGCALGSIVGKDESVEVPSVGGRPPRSLQRQTLAEVIEPRYTELLNLVNEEILQLQEKLRQQGVKHHLAAGIVLTGGAAQIEGLAACAQRVFHTQVRIGAPLNITGLTDYAQEPYYSTAVGLLHYGKESHLNGEAEVEKRVTASVGSWIKRLNSWLRKEF
partner: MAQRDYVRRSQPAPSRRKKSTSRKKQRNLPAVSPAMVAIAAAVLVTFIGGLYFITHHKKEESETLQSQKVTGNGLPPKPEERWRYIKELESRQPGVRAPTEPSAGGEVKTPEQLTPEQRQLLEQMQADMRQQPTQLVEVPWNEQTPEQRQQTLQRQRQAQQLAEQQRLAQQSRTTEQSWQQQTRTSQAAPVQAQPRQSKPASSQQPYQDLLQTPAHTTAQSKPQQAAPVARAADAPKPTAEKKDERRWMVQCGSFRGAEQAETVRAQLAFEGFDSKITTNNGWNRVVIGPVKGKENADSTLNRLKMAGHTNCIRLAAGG
B2: Cell division protein FtsA (Escherichia coli (strain K12)), P0ABH0 (parent)
chain: B1 chain

The first assay covers variants of B1. The settings on record: with ftsn_ecoli ftsN.
Take M71A: the “effect of a mutation on the interaction” value is “decreasing interaction strength”.

As to E69P, the “effect of a mutation on the interaction” value is given as “decreasing interaction strength”.

The next assay covers variants of B2. The following applies: with ftsz_ecoli ftsZ.
For the variant R286W, the “effect of a mutation on the interaction” value was “increasing interaction strength”.

For the variant E69P, the “effect of a mutation on the interaction” value is reported as “decreasing interaction strength”.

Values taken from IntAct's records for PubMed 17986188.
